Substitutions are numbered along the chain they refer to. Read-outs that look alike come from different tables or passages of the source. Each block holds one binder with its values, some of them ahead of it.
Legend:
[1] = molecular target: T1, Rhesus SLC34A2 (Rhesus, UniProt F7HDA3 1-690); experiment: FACS, HEK293/Rhesus SLC34A2 cells
T1 construct: whole, on cells
T1 sequence: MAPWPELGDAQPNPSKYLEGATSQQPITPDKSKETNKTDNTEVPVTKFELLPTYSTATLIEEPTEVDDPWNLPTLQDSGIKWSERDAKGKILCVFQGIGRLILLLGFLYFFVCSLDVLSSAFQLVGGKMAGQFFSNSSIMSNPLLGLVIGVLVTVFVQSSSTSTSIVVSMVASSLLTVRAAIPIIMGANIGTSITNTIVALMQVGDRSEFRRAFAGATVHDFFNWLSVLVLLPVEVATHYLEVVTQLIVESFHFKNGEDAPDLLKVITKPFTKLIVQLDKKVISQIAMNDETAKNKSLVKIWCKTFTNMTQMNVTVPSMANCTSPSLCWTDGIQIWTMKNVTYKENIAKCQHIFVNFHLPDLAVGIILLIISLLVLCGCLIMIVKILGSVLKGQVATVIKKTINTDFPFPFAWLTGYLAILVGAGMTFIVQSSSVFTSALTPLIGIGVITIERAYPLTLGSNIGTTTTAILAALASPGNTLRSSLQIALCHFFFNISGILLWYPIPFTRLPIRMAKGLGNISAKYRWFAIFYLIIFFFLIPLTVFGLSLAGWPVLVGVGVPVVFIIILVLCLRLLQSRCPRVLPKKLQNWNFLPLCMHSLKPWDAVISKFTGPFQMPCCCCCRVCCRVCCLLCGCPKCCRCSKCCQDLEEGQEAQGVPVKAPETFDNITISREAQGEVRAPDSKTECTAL
Method: (§1) Briefly, the Rhesus SLC34A2 expressing HEK293 engineering cells (HEK293/Rhesus_SLC34A2) were incubated with chimeric Abs (from 200 nM, 4 folds dilution, 8 points). After incubation at 4° C. for 60 minutes, the cells were washed with FACS buffer twice, then stained with fluorescent conjugated secondary antibody at 4° C. for 30 minutes. After that the cells were washed twice and analyzed by flow cytometry.

[2] = molecular target: T2, human SLC34A2 (human, UniProt O95436 1-690); experiment: FACS, RMG-1 cells
T2 construct: whole, on cells; also called human solute carrier 34 A2; NaPi2b
T2 sequence (looked up): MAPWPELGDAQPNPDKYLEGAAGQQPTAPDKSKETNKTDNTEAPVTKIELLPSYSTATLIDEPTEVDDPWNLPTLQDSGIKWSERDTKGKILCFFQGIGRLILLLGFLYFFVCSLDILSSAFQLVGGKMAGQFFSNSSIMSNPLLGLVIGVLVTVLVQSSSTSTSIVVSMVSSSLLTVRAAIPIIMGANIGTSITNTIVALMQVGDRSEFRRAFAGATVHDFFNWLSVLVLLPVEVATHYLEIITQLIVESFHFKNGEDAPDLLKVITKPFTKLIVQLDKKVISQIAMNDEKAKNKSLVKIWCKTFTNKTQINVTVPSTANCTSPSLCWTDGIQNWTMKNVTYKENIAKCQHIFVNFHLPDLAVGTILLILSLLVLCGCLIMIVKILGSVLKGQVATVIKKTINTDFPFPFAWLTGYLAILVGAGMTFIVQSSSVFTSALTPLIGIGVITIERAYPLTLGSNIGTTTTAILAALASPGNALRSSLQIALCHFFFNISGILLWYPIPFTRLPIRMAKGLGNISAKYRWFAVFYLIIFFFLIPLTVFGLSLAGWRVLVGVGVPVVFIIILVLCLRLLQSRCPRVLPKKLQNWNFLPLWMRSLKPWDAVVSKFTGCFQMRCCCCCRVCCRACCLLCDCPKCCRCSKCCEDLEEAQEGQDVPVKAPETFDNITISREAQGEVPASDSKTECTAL
Method: Based on the foregoing cell-based binding results, some of the chimeric antibodies were selected for further cell based binding on human SLC34A2 expressing cells using flow cytometry. RMG-1 cells were incubated with the selected chimeric antibodies (from 200 nM, 4 folds dilution, 8 points). After incubation at 4° C. for 60 minutes, the cells were washed with FACS buffer twice, then stained with fluorescent conjugated secondary antibody at 4° C. for 30 minutes. Afterwards the cells were washed twice and analyzed by flow cytometry.

[3] = molecular target: T2, human SLC34A2; experiment: FACS, HEK293/human SLC34A2 cells
Method: as §1, with “OVCAR3 cells or HEK293 cells expressing human” for “the Rhesus”, “SLC34A2” for “SLC34A2 expressing HEK293 engineering cells (HEK293/Rhesus_SLC34A2)”, “antibodies” for “Abs”

[4] = molecular target: T2, human SLC34A2; experiment: cell-based or functional assay
[5] = molecular target: T2, human SLC34A2; experiment: FACS, OVCAR3 cells
Method in brief: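 Flow cytometry binding: cells (OVCAR3, or HEK293 transfected with human SLC34A2) exposed 60 min at 4° C to chimeric hIgG1, 8-point 4-fold series starting 200 nM. Washed, stained 30 min at 4° C with fluorescent anti-human secondary, then analysed.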

[6] = molecular target: T2, human SLC34A2; experiment: FACS, OVCAR3 cells; remark: listed apart in the source
[7] = molecular target: T2, human SLC34A2; experiment: FACS, HEK293/human SLC34A2 cells; remark: listed apart in the source
Method: The PTM-derisked VH chains were first tested for their impact on target binding. Cell based binding of PTM Abs on human SLC34A2 expressing cells were assessed using flow cytometry. Briefly, the HEK293/H_SLC34A2 cells were incubated with PTM Abs (from 200 nM, 4 folds dilution, 8 points). After incubation at 4° C. for 60 minutes, the cells were washed with FACS buffer twice, then stained with fluorescent conjugated secondary antibody at 4° C. for 30 minutes. After that the cells were washed twice and analyzed by flow cytometry.

[8] = molecular target: T2, human SLC34A2; experiment: cell-based or functional assay; remark: listed apart in the source
[9] = molecular target: T1, Rhesus SLC34A2; experiment: FACS, HEK293/Rhesus SLC34A2 cells; remark: listed apart in the source
[10] = molecular target: T3, Cynomolgus SLC34A2 (Cynomolgus, UniProt A0A2K5UHY1 1-690); experiment: FACS, cells expressing Cynomolgus SLC34A2
T3 construct: whole, on cells; also called Cyno SLC34A2
T3 sequence: T1 sequence with P325H, I530V

[11] = molecular target: T2, human SLC34A2; experiment: FACS, RMG-1 cells; remark: listed apart in the source
Method: (§2) In another testing, cell based binding of hu Abs on human SLC34A2 expressing cells were assessed using flow cytometry. Briefly, the HEK293/H_SLC34A2, OVCAR3 and RMG-1 cells were incubated with hu Abs. After incubation at 4° C. for 60 minutes, the cells were washed with FACS buffer twice, then stained with fluorescent conjugated secondary antibody at 4° C. for 30 minutes. After that the cells were washed twice and analyzed by flow cytometry.

[12] = molecular target: T2, human SLC34A2; experiment: cell-based or functional assay; remark: listed apart in the source
[13] = molecular target: T2, human SLC34A2; experiment: FACS, OVCAR3 cells; remark: listed apart in the source
Method: as §2

[14] = molecular target: T1, Rhesus SLC34A2; experiment: FACS, HEK293/Rhesus SLC34A2 cells; remark: listed apart in the source
[15] = molecular target: T2, human SLC34A2; experiment: FACS, HEK293/human SLC34A2 cells; remark: listed apart in the source
Method: as §2

[16] = molecular target: T2, human SLC34A2; experiment: FACS, OVCAR3 cells; remark: listed apart in the source

- EC50 [1]: 2.19 nM
- Top (MFI) [1]: 18500 MFI
- EC50 [2]: 2.77 nM
- Top (MFI) [2]: 9920 MFI
- EC50 [3]: 1.52 nM
- Top (MFI) [3]: 114000 MFI
- EC50 [5]: 2.14 nM
- Top (MFI) [5]: 43300 MFI
- EC50 [6]: 3.9 nM
- Top (MFI) [6]: 72900 MFI
- EC50 [7]: 1.14 nM
- Top (MFI) [7]: 32200 MFI
- ADCC reporter EC50 [8]: 2.3 nM
- ADCC reporter Top (MFI) [8]: 397000 MFI
- EC50 [9]: 3.5 nM
- Top (MFI) [9]: 47400 MFI
- EC50 [10]: 2.4 nM
- Top (MFI) [10]: 4560 MFI
B1: xi90G10H7 hIgG1 (antibody, V domains shown)
VH: QVQLQQPGAVLVKPGASVKMSCKASGYTFTSYIIHWVKQTPGQGLEWVGAIYPGNGDASSIQKFKGKATLTVDKSSSTAYMQLSSLTSADSAVYYCARGHYYGSAAWFAYWGQGTLVTVSA
VL: DILLTQSPAILSVSPGERVSFSCRASQNIGTGIHWYQQRTNGSLRLLIKYASESISGIPSRFSGSGSGTDFTLSINSVESEDIADYYCQQSNSWPLTFGAGTKLELK
notes: chimeric, hIgG1
- cytotoxicity EC50 [4]: 0.28 nM
- cytotoxicity Inhibition % [4]: 103%

- EC50 [1]: 2.46 nM
- Top (MFI) [1]: 15900 MFI
- EC50 [2]: 3.48 nM
- Top (MFI) [2]: 9500 MFI
- EC50 [3]: 1.8 nM
- Top (MFI) [3]: 115000 MFI
- EC50 [5]: 3.31 nM
- Top (MFI) [5]: 42900 MFI
- EC50 [6]: 5.1 nM
- Top (MFI) [6]: 71400 MFI
- EC50 [7]: 1.48 nM
- Top (MFI) [7]: 30400 MFI
- ADCC reporter EC50 [8]: 3 nM
- ADCC reporter Top (MFI) [8]: 530000 MFI
- EC50 [9]: 4.9 nM
- Top (MFI) [9]: 46400 MFI
- EC50 [10]: 2.7 nM
- Top (MFI) [10]: 3540 MFI
B2: xi55E5B6D12 hIgG1 (antibody, V domains shown)
VH: QVQLQQSGAEVVNSGASVKMSCKASGYTFTTYNMHWVKQTPGQGLEWIGAIYPGNGDTSYNQRFKGKATFTADRSSGTAYMQLSSLPSEDSAVYYCARGGYANGALVDWGQGTLVTVSA
VL: DILMTQSHKFMSTSVGDRVTITCKASQDVGTAVAWYQNKPGQSPKLLIFWTSTRHTGVPDRFTGSGSGTDFTLTISNVQSEDLADYFCQQYSRQPLTFGPGTKLEIK
notes: chimeric, hIgG1
- cytotoxicity EC50 [4]: 0.69 nM
- cytotoxicity Inhibition % [4]: 96.7%

- EC50 [11]: 3.03 nM
- Top [11]: 9560 MFI
- ADCC reporter EC50 [12]: 1.77 nM
- ADCC reporter Top (MFI) [12]: 125000 MFI
- EC50 [13]: 2.86 nM
- Top [13]: 20300 MFI
- EC50 [14]: 8.8 nM
- Top (MFI) [14]: 8160 MFI
- EC50 [15]: 1.72 nM
- Top [15]: 36100 MFI
- EC50 [16]: 1.72 nM
- Top (MFI) [16]: 36100 MFI
B3: 91C9F1.p1.z6 hIgG1 (antibody, V domains shown)
VH: QVQLVQSGAEVKKPGSSVKVSCKTSGFFFTEYIIHWVRQAPGQGLEWIGGIIPNNDVTNYKQNFRGRVTLTADKSTSTAYMELSSLRSEDTAVYYCARWRNAYYSAMDSWGQGTTVTVSS
VL: DIQMTQSPSSLSTSVGDRVTITCTASQDVGTAVAWYQQKPGKSPKLLIYWASTRHTGVPERFSGSGSGTDFTLTISSLQPEDVATYFCQQYRTSPLTFGGGTKVEIK
notes: humanized hIgG1

- EC50 [11]: 3.22 nM
- Top [11]: 9820 MFI
- ADCC reporter EC50 [12]: 3.14 nM
- ADCC reporter Top (MFI) [12]: 137000 MFI
- EC50 [13]: 2.71 nM
- Top [13]: 20200 MFI
- EC50 [14]: 3.2 nM
- Top (MFI) [14]: 6720 MFI
- EC50 [15]: 1.12 nM
- Top [15]: 34600 MFI
- EC50 [16]: 1.12 nM
- Top (MFI) [16]: 34600 MFI
B4: 91C9F1.p1.z4 hIgG1 (antibody, V domains shown)
VH: B3 VH with T24A, I48M, L70I, K74E
VL: B3 VL with Q3V, M4V, S63T, L78V, G100V, V104L, I106L
notes: humanized hIgG1

- EC50 [11]: 3.91 nM
- Top [11]: 9590 MFI
- ADCC reporter EC50 [12]: 2.37 nM
- ADCC reporter Top (MFI) [12]: 138000 MFI
- EC50 [13]: 3.96 nM
- Top [13]: 22300 MFI
- EC50 [14]: 4.2 nM
- Top (MFI) [14]: 9230 MFI
- EC50 [15]: 2.32 nM
- Top [15]: 38100 MFI
- EC50 [16]: 2.32 nM
- Top (MFI) [16]: 38100 MFI
B5: 91C9F1.p1.z10 hIgG1 (antibody, V domains shown)
VH: B3 VH with K12V, A40S, V68A
VL: B3 VL
notes: humanized hIgG1

Source: patent US20240301052A1 (LANOVA MEDICINES DEVELOPMENT, published 2024)
